Results taken from IntAct's records for PubMed 25363763.

B1: Cell adhesion molecule CEACAM1 (Homo sapiens), P13688 (parent)
chain: MGHLSAPLHRVRVPWQGLLLTASLLTFWNPPTTAQLTTESMPFNVAEGKEVLLLVHNLPQQLFGYSWYKGERVDGNRQIVGYAIGTQQATPGPANSGRETIYPNASLLIQNVTQNDTGFYTLQVIKSDLVNEEATGQFHVYPELPKPSISSNNSNPVEDKDAVAFTCEPETQDTTYLWWINNQSLPVSPRLQLSNGNRTLTLLSVTRNDTGPYECEIQNPVSANRSDPVTLNVTYGPDTPTISPSDTYYRPGANLSLSCYAASNPPAQYSWLINGTFQQSTQELFIPNITVNNSGSYTCHANNSVTGCNRTTVKTIIVTELSPVVAKPQIKASKTTVTGDKDSVNLTCSTNDTGISIRWFFKNQSLPSSERMKLSQGNTTLSINPVKREDAGTYWCEVFNPISKNQSDPIMLNVNYNALPQENGLSPGAIAGIVIGVVALVALIAVALACFLHFGKTGRASDQRDLTEHKPSVSNHTQDHSNDPPNKMNEVTYSTLNFEAQQPTQPTSASPSLTATEIIYSEVKKQ

Variants of: B1
Settings: with havr2_human HAVCR2, Q8TDQ0

Variant	effect of a mutation on the interaction
Q123H	decreasing interaction strength
Q78L	decreasing interaction strength
N76A	decreasing interaction strength
G81A	disrupting interaction strength
